Laboratory results as given in patent publication US20260201002A1, “KERATIN CF1, PREPARATION METHOD THEREFOR, PHARMACEUTICAL COMPOSITION COMPRISING SAME, AND USE THEREOF” (INSTITUTE OF MATERIA MEDICA ,CHINESE ACADEMY OF MEDICAL …, priority 2023, published 2026).
Counter-ions that a name gives are not always drawn.

Experiments:
[1] = system: lipopolysaccharide (LPS) induced fever in rats; assay: Lipopolysaccharide (LPS)-induced SD rat fever model; type: in vivo, SD rats; settings: for Body temperature 2 hours after modeling / Body temperature 4 hours after modeling / Body temperature 6 hours after modeling / Body temperature 8 hours after modeling: then LPS 20 μg/kg i.p.; for Body temperature 2 hours after modeling / Body temperature 4 hours after modeling: model group 37.7 ± 0.1; for Body temperature 6 hours after modeling: model group 37.8 ± 0.2; for Body temperature 8 hours after modeling: model group 37.9 ± 0.2; for Effect on body temperature of model rats (in words): P<0.05 vs model group
Protocol: • Animals: Male SD rats, weight: 230-260 grams; • Drugs: lipopolysaccharide (LPS, SIGMA L-2880), aspirin (SIGMA A2093), protein CF1; • Instruments: electronic balance (SARTORIUS BP121S), electronic clinical thermometer (CITIZEN CT-513W). • Experiment grouping: • Normal control group; • Model group: lipopolysaccharide fever model group; • Positive control group: Aspirin 300 mg/kg group; • Protein CF1, 10 mg/kg group, 50 mg/kg group. • Method: the method for replicating the rat fever model via intraperitoneal injection of lipopolysaccharide. • Preparation of experimental animals: After the experimental animals were adapted to the experimental environment (temperature 22° C.±2° C., relative humidity 50%±2%) for 1 day, the rectal temperature was measured for pre-adaptation at 8:00 in the morning and 15:00 respectively. The animals were fasted for 12 hours before the experiment with water provided ad libitum, and their bowels were emptied before the rectal temperature was measured. Before each temperature measurement, the probe of the electronic thermometer was applied with Vaseline and inserted 2 cm into the rat's rectum (a marker was made at 2 cm to ensure consistent insertion depth each time). The body temperature was recorded after readings stabilized.
(§1) Intraperitoneal Injection of Lipopolysaccharide to replicate the rat fever model: Before model establishment, the body temperature of rats was measured. Qualified rats with body temperatures of 36.2-37.3° C. were selected and randomly grouped, with 8 rats per group. After oral administration of aspirin and different doses of protein CF1, lipopolysaccharide (20 μg/kg, 2 ml/kg) was immediately intraperitoneally injected. The normal control group was intraperitoneally injected with the same volume of normal saline. The body temperatures of rats were monitored 2 hours later and for a total of 8 hours.
(§2) Based on the body temperature values measured at each time point on the day of the experiment, the mean, standard deviation and standard error of body temperature of rats in each group were calculated. The TTEST test was applied to compare the data of each group between groups, and P<0.05 was considered as a significant difference.

[2] = system: yeast-induced fever model in rats; assay: Yeast-induced SD rat fever model; type: in vivo, SD rats; settings: for Basal body temperature: rectal temperature before modeling, N=8; for Body temperature 2 hours after modeling / Body temperature 6 hours after modeling / Body temperature 8 hours after modeling / Body temperature 4 hours after modeling: then 20% yeast suspension 10 ml/kg s.c.; for Body temperature 2 hours after modeling: model group 37.5 ± 0.1; for Body temperature 6 hours after modeling / Body temperature 8 hours after modeling: model group 37.6 ± 0.1; for Body temperature 4 hours after modeling: model group 37.7 ± 0.1; for Effect on body temperature of model rats (in words): P<0.05 vs model group
Protocol: • Animals: male SD rats, weight 230-260 grams; • Medicines: yeast (OXOID LP0021), Aspirin (SIGMA A2093), protein CF1; • Instruments: electronic balance (SARTORIUS BP121S), electronic clinical thermometer • (CITIZEN CT-513W). • Experiment grouping: • Normal control group; • Model group: yeast-induced fever model; • Positive control group: Aspirin 300 mg/kg group; • Protein CF1, 10 mg/kg group, 50 mg/kg group.
Preparation of experimental animals: After the experimental animals were adapted to the experimental environment (temperature 22° C.±2° C., relative humidity 50%±2%) for 1 day, the rectal temperature was measured for pre-adaptation at 8:00 in the morning and 15:00 respectively. The animals were fasted for 12 hours before the experiment with water provided ad libitum, and their bowels were emptied before the rectal temperature was measured. Before each temperature measurement, the probe of the electronic thermometer was applied with Vaseline and inserted 2 cm into the rat's rectum (a marker was made at 2 cm to ensure consistent insertion depth each time). The body temperature was recorded after readings stabilized.
as §1, with “Subcutaneous injection” for “Intraperitoneal Injection”, “dry yeast” for “Lipopolysaccharide”, “20% yeast suspension (10” for “lipopolysaccharide (20 μg/kg, 2”, “subcutaneously” for “intraperitoneally”, “later, once every 2 hours,” for “later and”
as §2

[3] = system: ammonia water-induced cough in mice; assay: Antitussive effect on ammonia water-induced cough in mice; type: in vivo, ICR mice; settings: for Latency period: 1 hour before 10% ammonia water 10 seconds, solvent control 30.0 ± 1.8; for Latency period / Cough frequency: X ± SEM; for Cough frequency: within 2 minutes, 1 hour before 10% ammonia water, solvent control 65.5 ± 3.8
Protocol: • Animals: male ICR mice; • Drug and reagents: dextromethorphan hydrobromide, ammonia, 0.2% CMC-Na, protein CF1; • Instruments: Compressed nebulizer (403T), balance (XS105DU). • Experiment grouping: • Solvent control group; • Dextromethorphan 15 mg/kg group; • Protein CF1, 20 mg/kg group, 50 mg/kg group.
Model establishment and drug administration: Mice were orally administered dextromethorphan or varying doses of protein CF1 (administration volume: 10 ml/kg). The solvent control group were administered an equal volume of distilled water. After 1 hour, mice were placed in a sealed chamber and atomized with 10% ammonia water for 10 seconds. The cough latency period and cough frequency within 2 minutes were then observed and recorded.
Data processing: The oral administration time point, the nebulization exposure time point, the cough latency period, and the cough frequency within 2 minutes were recorded respectively. The cough latency period refers to the time interval of seconds required from the start of ammonia nebulization to the occurrence of coughing. The manifestation of coughing in mice is characterized by the contraction of their abdominal muscles (chest retraction) and the opening of their mouths wide. The mean and standard error of data in each group were calculated. The TTEST test was applied to compare the model group with the other groups. P<0.05 was considered as a significant difference.

[4] = aspirin 300 mg/kg oral, 2, 4, 6 and 8 hours after modeling

Q: What does the source list for `CC(=O)Oc1ccccc1C(=O)O` [Aspirin, aspirin, reference compound]?
A: Body temperature 2 hours after modeling ([1]; aspirin 300 mg/kg oral): 37.0 ± 0.2 °C; Body temperature 4 hours after modeling ([1]; aspirin 300 mg/kg oral): 37.0 ± 0.2 °C; Body temperature 6 hours after modeling ([1]; aspirin 300 mg/kg oral): 37.3 ± 0.1 °C; Body temperature 8 hours after modeling ([1]; aspirin 300 mg/kg oral): 37.2 ± 0.1 °C; Effect on body temperature of model rats (in words) [1, 4]: can effectively inhibit the increase of body temperature; Basal body temperature ([2]; aspirin 300 mg/kg oral group): 36.9 ± 0.1 °C; Body temperature 2 hours after modeling ([2]; aspirin 300 mg/kg oral): 36.9 ± 0.1 °C; Body temperature 6 hours after modeling ([2]; aspirin 300 mg/kg oral): 37.2 ± 0.1 °C; Body temperature 8 hours after modeling ([2]; aspirin 300 mg/kg oral): 37.1 ± 0.1 °C; Body temperature 4 hours after modeling ([2]; aspirin 300 mg/kg oral): 37.1 ± 0.2 °C; Effect on body temperature of model rats (in words) [2, 4]: can effectively inhibit the increase of body temperature

Q: `COc1ccc2c(c1)[C@]13CCCC[C@@H]1[C@H](C2)N(C)CC3` [Dextromethorphan, dextromethorphan hydrobromide, reference compound] was tested. Which Latency period ([3]; dextromethorphan 15 mg/kg oral) did it give?
A: Its Latency period is 45.4 ± 2.1 s.

Q: What about the “Effect on latency period and cough frequency (in words)” value ([3]; dextromethorphan 15 mg/kg oral, vs solvent control group, P<0.05) of the same molecule?
A: Its value is “significant improvements in terms of latency period and cough frequency”.

Q: And the Cough frequency ([3]; dextromethorphan 15 mg/kg oral)?
A: The Cough frequency was 36.8 ± 2.8.

B1: CF1: keratin with the amino acid sequence of SEQ ID NO. 1, expressed in E. coli; tested batch is the protein in Example 7 (protein)
chain: MSCRSYRVSSGHRVGNFSSCSAGIPRNLNRFRASSVSCRSGPSFRGIGGFGSRSVITFGSCSPRIAAVGPRPIRCGVGFGAGSGMAFGFGDGIGAGLGFGSGSYLGYGFGGPGFGYRVGGIGVPAAPSITPVTVNQSLLTPLNLEIDPNAQRVKRDEKEQIKTLNNRFASFIDKVRFLEQQNKLLETKWSFLQEQKGARSNLEPLFENYITNLQRQLDIANSERARFEAERNQLQDVLEGFKKKYEEEVVFRANAENEFVALKKDVDAAFLNKAELEANVDTLTQEIDFLKTLYAAEIQLLQSHISETSVIVKMDNSRDLDLDGIIAEVRAQYEEVAKRSRADAEAWYQTKYEEMRVTAGQHCDNLRNTREEINELTRLIQRLKAEIEHAKAQRARLEAAVAEAEQQGEAALNDAKCKLADLEAALQQAKQDMARQLREYQELMNAKLGLDIEIATYRRLLEGEEIRICEGVGPVNISVSSSRGGVVCGPESLVTSSTLSRSGVTFSGSSSIRPSGACGSSLGGVVVAGGDLLSAGSRGGSVLVGEACVPSVPCPLPTEGFSSCSGGRSSSLRFVSTTTSRRTKY
Q: Which results are given for B1?
A: Effect on body temperature of model rats (summary, in words) ([1]; 2 hours post-modeling, dose not stated): significant effect in reducing the body temperature; Body temperature 2 hours after modeling ([1]; CF1 10 mg/kg oral): 37.3 ± 0.1 °C; Body temperature 4 hours after modeling ([1]; CF1 10 mg/kg oral): 37.7 ± 0.2 °C; Body temperature 6 hours after modeling ([1]; CF1 10 mg/kg oral): 37.7 ± 0.2 °C; Body temperature 8 hours after modeling ([1]; CF1 10 mg/kg oral): 37.9 ± 0.1 °C; Effect on body temperature of model rats (in words) ([1]; CF1 10 mg/kg oral, 2 hours after modeling): can significantly reduce the body temperature; Basal body temperature ([1]; CF1 50 mg/kg oral group, rectal temperature before modeling, N=8): 36.8 ± 0.05 °C; Body temperature 2 hours after modeling ([1]; CF1 50 mg/kg oral): 37.3 ± 0.2 °C; Body temperature 4 hours after modeling ([1]; CF1 50 mg/kg oral): 37.6 ± 0.2 °C; Body temperature 6 hours after modeling ([1]; CF1 50 mg/kg oral): 37.9 ± 0.2 °C; Body temperature 8 hours after modeling ([1]; CF1 50 mg/kg oral): 37.9 ± 0.1 °C; Effect on body temperature of model animals (summary, in words) ([2]; 8 hours post-modeling, dose not stated): significant effect in reducing the elevated body temperature; Basal body temperature ([2]; CF1 10 mg/kg oral group): 36.9 ± 0.1 °C; Body temperature 2 hours after modeling ([2]; CF1 10 mg/kg oral): 37.0 ± 0.1 °C; Body temperature 6 hours after modeling ([2]; CF1 10 mg/kg oral): 37.4 ± 0.1 °C; Body temperature 8 hours after modeling ([2]; CF1 10 mg/kg oral): 37.2 ± 0.05 °C; Body temperature 4 hours after modeling ([2]; CF1 10 mg/kg oral): 37.3 ± 0.1 °C; Effect on body temperature of model rats (in words) ([2]; CF1 10 mg/kg oral, 2 hours and 8 hours post-modeling): can significantly inhibit the temperature elevation; Basal body temperature ([2]; CF1 50 mg/kg oral group): 36.8 ± 0.1 °C; Body temperature 2 hours after modeling ([2]; CF1 50 mg/kg oral): 36.8 ± 0.1 °C; Body temperature 6 hours after modeling ([2]; CF1 50 mg/kg oral): 37.4 ± 0.1 °C; Body temperature 8 hours after modeling ([2]; CF1 50 mg/kg oral): 37.4 ± 0.1 °C; Body temperature 4 hours after modeling ([2]; CF1 50 mg/kg oral): 37.2 ± 0.1 °C; Latency period ([3]; CF1 20 mg/kg oral): 34.6 ± 3.1 s; Effect on cough frequency (in words) ([3]; CF1 20 mg/kg oral, vs solvent control group): statistically significant difference in term of cough frequency, but the effect is weak; Latency period ([3]; CF1 50 mg/kg oral): 35.1 ± 4.6 s; Antitussive effect (summary, in words) ([3]; dose not stated): can reduce the cough frequency; Cough frequency ([3]; CF1 20 mg/kg oral): 50.1 ± 2.8; Cough frequency ([3]; CF1 50 mg/kg oral): 56.4 ± 4.2
